Results as given in patent publication US20250361312A1 (INVOX PHARMA, published 2025).
Residue numbers refer to the chain shown, from its start. Each block holds one binder with its values, some of them ahead of it.

What was measured:
Assay in all cases: SPR (Biacore T200), receptor on CM5 chip
human TNFRI = target: T1, human TNFRI (human, UniProt P19438 30-211, limits assumed)
T1 construct: Amine-coupled to a CM5 chip
T1 sequence (looked up): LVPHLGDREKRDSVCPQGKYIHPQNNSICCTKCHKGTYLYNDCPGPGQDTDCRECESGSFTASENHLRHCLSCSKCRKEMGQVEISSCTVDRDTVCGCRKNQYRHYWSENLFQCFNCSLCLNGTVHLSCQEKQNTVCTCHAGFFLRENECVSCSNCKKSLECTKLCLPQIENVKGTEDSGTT

human TNFRII = target: T2, human TNFRII (human, UniProt P20333 23-257, limits assumed)
T2 construct: Amine-coupled to a CM5 chip
T2 sequence (looked up): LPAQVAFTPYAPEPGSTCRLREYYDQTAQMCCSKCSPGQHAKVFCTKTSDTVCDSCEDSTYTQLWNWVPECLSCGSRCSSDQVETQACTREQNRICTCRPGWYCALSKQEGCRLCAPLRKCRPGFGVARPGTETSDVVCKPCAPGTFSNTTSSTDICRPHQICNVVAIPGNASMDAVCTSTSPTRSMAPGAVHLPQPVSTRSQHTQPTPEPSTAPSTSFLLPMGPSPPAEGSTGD

human CD40 = target: T3, human CD40 (human, UniProt P25942 21-193, limits assumed)
T3 construct: Amine-coupled to a CM5 chip
T3 sequence (P25942 21-193 limits assumed): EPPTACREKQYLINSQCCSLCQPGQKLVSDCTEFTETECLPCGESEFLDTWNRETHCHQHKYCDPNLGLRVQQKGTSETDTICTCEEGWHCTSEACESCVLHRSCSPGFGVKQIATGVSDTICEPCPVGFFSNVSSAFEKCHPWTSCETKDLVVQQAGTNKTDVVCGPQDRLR

human NGFR = target: T4, human NGFR (human, UniProt P08138 29-250, limits assumed)
T4 construct: Amine-coupled to a CM5 chip
T4 sequence (looked up): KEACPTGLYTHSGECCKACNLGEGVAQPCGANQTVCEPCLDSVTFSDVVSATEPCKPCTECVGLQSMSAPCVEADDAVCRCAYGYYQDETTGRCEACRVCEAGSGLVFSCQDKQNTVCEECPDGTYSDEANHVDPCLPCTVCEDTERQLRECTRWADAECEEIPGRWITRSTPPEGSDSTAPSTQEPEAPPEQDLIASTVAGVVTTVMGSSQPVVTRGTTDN

human CD137 = target: T5, human CD137 (human, UniProt Q07011 24-186, limits assumed)
T5 construct: Amine-coupled to a CM5 chip; also called 4-1BB

B1: FS20-31-115AA/4420 (bispecific antibody, human IgG1, kappa, L234A L235A)
heavy: EVKLDETGGGLVQPGRPMKLSCVASGFTFSDYWMNWVRQSPEKGLEWVAQIRNKPYNYETYYSDSVKGRFTISRDDSKSSVYLQMNNLRVEDMGIYYCTGSYYGMDYWGQGTSVTVSSASTKGPSVFPLAPSSKSTSGGTAALGCLVKDYFPEPVTVSWNSGALTSGVHTFPAVLQSSGLYSLSSVVTVPSSSLGTQTYICNVNHKPSNTKVDKKVEPKSCDKTHTCPPCPAPEAAGGPSVFLFPPKPKDTLMISRTPEVTCVVVDVSHEDPEVKFNWYVDGVEVHNAKTKPREEQYNSTYRVVSVLTVLHQDWLNGKEYKCKVSNKALPAPIEKTISKAKGQPREPQVYTLPPSRDEWASGEVSLTCLVKGFYPSDIAVEWESNGEQEFDYKTTPPVLDSDGSFFLYSKLTVPYWRWGAKRTFSCSVMHEALHNHYTQKSLSLSPG
light: DVVMTQTPLSLPVSLGDQASISCRSSQSLVHSNGNTYLRWYLQKPGQSPKVLIYKVSNRFSGVPDRFSGSGSGTDFTLKISRVEAEDLGVYFCSQSTHVPWTFGGGTKLEIKRTVAAPSVFIFPPSDEQLKSGTASVVCLLNNFYPREAKVQWKVDNALQSGNSQESVTEQDSKDSTYSLSSTLTLSKADYEKHKVYACEVTHQGLSSPVTKSFNRGEC
notes: Human IgG1 with anti-FITC 4420 Fab and LALA; The OX40 site is in the CH3 domain; also called FS20-31-115 Fcab in mock (4420 LALA) mAb^2 format
- binding result (human TNFRI): no binding (tested: 1 µM)
- binding result (human TNFRII): no binding (tested: 1 µM)
- binding result (human CD40): no binding (tested: 1 µM)
- binding result (human NGFR): no binding (tested: 1 µM)
- binding result (human CD137): no binding (tested: 1 µM)

B3: FS20-31-94AA/4420 (bispecific antibody, human IgG1, kappa, L234A L235A)
heavy: B1 heavy with A360E, S361H, E387I, Q388R, F390H, A420G, K421P, R422G
light: B1 light
notes: Human IgG1 with anti-FITC 4420 Fab and LALA; also called FS20-31-94 Fcab in mock (4420 LALA) mAb^2 format
- binding result (human TNFRI): no binding (tested: 1 µM)
- binding result (human TNFRII): no binding (tested: 1 µM)
- binding result (human CD40): no binding (tested: 1 µM)
- binding result (human NGFR): no binding (tested: 1 µM)
- binding result (human CD137): no binding (tested: 1 µM)

B5: FS20-22-49AA/4420 (bispecific antibody, human IgG1, kappa, L234A L235A)
heavy: EVKLDETGGGLVQPGRPMKLSCVASGFTFSDYWMNWVRQSPEKGLEWVAQIRNKPYNYETYYSDSVKGRFTISRDDSKSSVYLQMNNLRVEDMGIYYCTGSYYGMDYWGQGTSVTVSSASTKGPSVFPLAPSSKSTSGGTAALGCLVKDYFPEPVTVSWNSGALTSGVHTFPAVLQSSGLYSLSSVVTVPSSSLGTQTYICNVNHKPSNTKVDKKVEPKSCDKTHTCPPCPAPEAAGGPSVFLFPPKPKDTLMISRTPEVTCVVVDVSHEDPEVKFNWYVDGVEVHNAKTKPREEQYNSTYRVVSVLTVLHQDWLNGKEYKCKVSNKALPAPIEKTISKAKGQPREPQVYTLPPSRDEYWDQEVSLTCLVKGFYPSDIAVEWESNGDEQFAYKTTPPVLDSDGSFFLYSKLTVDQYRWNPADYFSCSVMHEALHNHYTQKSLSLSPG
light: B1 light
notes: Human IgG1 with anti-FITC 4420 Fab and LALA; The OX40 site is in the CH3 domain; also called FS20-22-49 Fcab in mock (4420 LALA) mAb^2 format; FS20-22-49/4420 (LALA)
- binding result (human TNFRI): no binding (tested: 1 µM)
- binding result (human TNFRII): no binding (tested: 1 µM)
- binding result (human CD40): no binding (tested: 1 µM)
- binding result (human NGFR): no binding (tested: 1 µM)
- binding result (human CD137): no binding (tested: 1 µM)

B6: FS20-22-85AA/4420 (bispecific antibody, human IgG1, kappa, L234A L235A)
heavy: B5 heavy with V413L, A421F, Y423D
light: B1 light
notes: Human IgG1 with anti-FITC 4420 Fab and LALA; The OX40 site is in the CH3 domain; also called FS20-22-85 Fcab in mock (4420 LALA) mAb^2 format
- binding result (human TNFRI): no binding (tested: 1 µM)
- binding result (human TNFRII): no binding (tested: 1 µM)
- binding result (human CD40): no binding (tested: 1 µM)
- binding result (human NGFR): no binding (tested: 1 µM)
- binding result (human CD137): no binding (tested: 1 µM)

Further lines, results first:

- binding result (human TNFRI): no binding (tested: 1 µM)
- binding result (human TNFRII): no binding (tested: 1 µM)
- binding result (human CD40): no binding (tested: 1 µM)
- binding result (human NGFR): no binding (tested: 1 µM)
- binding result (human CD137): no binding (tested: 1 µM)
B2: FS20-22-47AA/4420 (bispecific antibody, human IgG1, kappa, L234A L235A)
heavy: B5 heavy with N419S, A421G
light: B1 light
notes: Human IgG1 with anti-FITC 4420 Fab and LALA; The OX40 site is in the CH3 domain; also called FS20-22-47 Fcab in mock (4420 LALA) mAb^2 format

- binding result (human TNFRI): no binding (tested: 1 µM)
- binding result (human TNFRII): no binding (tested: 1 µM)
- binding result (human CD40): no binding (tested: 1 µM)
- binding result (human NGFR): no binding (tested: 1 µM)
- binding result (human CD137): no binding (tested: 1 µM)
B4: FS20-11-127AA/4420 (bispecific antibody, human IgG1, kappa, L234A L235A)
heavy: EVKLDETGGGLVQPGRPMKLSCVASGFTFSDYWMNWVRQSPEKGLEWVAQIRNKPYNYETYYSDSVKGRFTISRDDSKSSVYLQMNNLRVEDMGIYYCTGSYYGMDYWGQGTSVTVSSASTKGPSVFPLAPSSKSTSGGTAALGCLVKDYFPEPVTVSWNSGALTSGVHTFPAVLQSSGLYSLSSVVTVPSSSLGTQTYICNVNHKPSNTKVDKKVEPKSCDKTHTCPPCPAPEAAGGPSVFLFPPKPKDTLMISRTPEVTCVVVDVSHEDPEVKFNWYVDGVEVHNAKTKPREEQYNSTYRVVSVLTVLHQDWLNGKEYKCKVSNKALPAPIEKTISKAKGQPREPQVYTLPPSREEDDNDVSLTCLVKGFYPSDIAVEWESNGIPIGPYKTTPPVLDSDGSFFLYSKLTVDKSRWWRHYVEEHPFLCSVMHEALHNHYTQKSLSLSPG
light: B1 light
notes: Human IgG1 with anti-FITC 4420 Fab and LALA; The OX40 site is in the CH3 domain

- binding result (human TNFRI): no binding (tested: 1 µM)
- binding result (human TNFRII): no binding (tested: 1 µM)
- binding result (human CD40): no binding (tested: 1 µM)
- binding result (human NGFR): no binding (tested: 1 µM)
- binding result (human CD137): no binding (tested: 1 µM)
B7: FS20-22-38AA/4420 (bispecific antibody, human IgG1, kappa, L234A L235A)
heavy: B5 heavy with D387A, Q389K, F390Y, A391Q, A421G
light: B1 light
notes: Human IgG1 with anti-FITC 4420 Fab and LALA; The OX40 site is in the CH3 domain; also called FS20-22-38 Fcab in mock (4420 LALA) mAb^2 format
